The text below walks through data of FireProtDB (doi:10.1016/0022-2836(92)90907-2).

For the series the following is noted: Bacillus amyloliquefaciens; pH 6.3; 25 °C; Urea; Fluorescence; MES 450 mM; reversible: yes; whole UniProt chain shown.

B1: Ribonuclease wild type, P00648 (protein)
chain: MMKMEGIALKKRLSWISVCLLVLVSAAGMLFSTAAKTETSSHKAHTEAQVINTFDGVADYLQTYHKLPDNYITKSEAQALGWVASKGNLADVAPGKSIGGDIFSNREGKLPGKSGRTWREADINYTSGFRNSDRILYSSDWLIYKTTDHYQTFTKIR
In the case of B1, the denaturant m value is 1.92 kcal/mol/M, the “denaturant midpoint (higher = more stable)” value was 4.6 M and the unfolding free energy amounted to 8.83 kcal/mol.
